# Key:
# 22 different tumor types = assay: Immunohistochemistry on tissue microarrays of tumor types
# Description: (§1) Tissue and tumor specificity of mAbs: to compare the tissue and tumor specificity of monoclonal antibodies of the present invention, tissue microarrays of 30 different normal tissues (Biochain) and 22 different tumor types (Dako) including prostate cancer was used in order to characterize their recognition specificity. The immunohistochemistry was performed on antigen retrieved, formalin fixed, paraffin embedded material. Anti-PSMA mAbs J591 (ATCC HB-12126) and 7E11 (ATCC HB-10494) were used as references. Formalin fixed paraffin embedded […] sections were subjected to antigen retrieval in basic antigen retrieval solution (BD Pharmingen pH 9.5) in a microwavable pressure cooker for 10 min, cooled and equilibrated to 0.01M phosphate buffered saline (PBS) pH 7.4. Staining was carried out at room temperature in a humidified chamber. Endogenous peroxidases were inactivated with a 1% solution of H2O2 for 20 min, blocked with 5% normal goat serum (NGS) for 30 min and incubated with primary monoclonal antibodies (mAbs) diluted in PBS; 2% NGS overnight. Antibody binding to tissue sections was detected by the sequential addition of the following reagents followed by washing in PBS: goat anti-mouse IgG (H+L) (ICN) secondary antibody diluted 1:100 in PBS; 2% NGS for 1 hr, a complex of a bi-specific mAb mouse anti-peroxidase and horse radish peroxidase for 1 hr, and 3,3-diaminobenzidene tetrahydrochloride (DAB) at 0.6 mg/ml in PBS; 2% NGS; 0.01% H2O2 as chromogen. The primary antibodies were purified mAbs used at concentrations optimized in dilution experiments. […] Mouse IgG mAb was used at a concentration of 0.2 μg/ml and served as a negative control for the primary antibodies. Tissue samples included organ confined and metastatic prostate cancer, HGPIN and normal prostate tissues drawn from radical prostatectomies, transurethral resections and autopsy material.
# [1] = tested on: 30 different normal tissues; assay: Immunohistochemistry on tissue microarrays of normal tissues
# Description: as §1
molecule,measurement,setting,value
"PSf42.4: anti-PSMA monoclonal antibody; light chain variable SEQ ID NO:51, heavy chain variable SEQ ID NO:52 (antibody, V domains shown) VH: EVKLQQSGAELVKPGASVKLSCTASGFSIRDTYMHWVRQRPEQGLEWITGIDPENGNSKYAPRFQDKATIIADTSSNTVHLQLDTLTSEDTAVYYCTRELAYWGQGTTVTVS VL: DILMTQSPLTLSVIIGQPASFSCKSSHSLLHRDGRTYLNWLLQRPGQSPQRLIYLVSKLDSGVPDRFTGSGSGTDFTLKISRVEAEDLGVYYCWQGTHFPRTFGGGTKLEIKRA",No. of positive cases/total no. of cases studied,22 different tumor types; Astrocytoma,0/2
same,No. of positive cases/total no. of cases studied,22 different tumor types; Breast carcinoma,0/2
same,No. of positive cases/total no. of cases studied,22 different tumor types; Carcinoid,0/3
same,No. of positive cases/total no. of cases studied,22 different tumor types; Colonic adenocarcinoma,0/2
same,No. of positive cases/total no. of cases studied,22 different tumor types; Epithelioid sarcoma,0/1
same,No. of positive cases/total no. of cases studied,22 different tumor types; Ewing's sarcoma,0/1
same,No. of positive cases/total no. of cases studied,22 different tumor types; Gastric carcinoma,0/2
same,No. of positive cases/total no. of cases studied,22 different tumor types; Hepatocellular carcinoma,0/2
same,No. of positive cases/total no. of cases studied,22 different tumor types; Hodgkin's lymphoma,5/13
same,No. of positive cases/total no. of cases studied,22 different tumor types; Leiomyoma,0/2
same,No. of positive cases/total no. of cases studied,22 different tumor types; Lung adeno carcinoma,0/2
same,No. of positive cases/total no. of cases studied,22 different tumor types; Lymphoma,0/3
same,No. of positive cases/total no. of cases studied,22 different tumor types; Malignant fibrous histiocytoma,0/1
same,No. of positive cases/total no. of cases studied,22 different tumor types; Melanoma,2/4
same,No. of positive cases/total no. of cases studied,22 different tumor types; Mesothelioma,0/2
same,No. of positive cases/total no. of cases studied,22 different tumor types; Ovarian carcinoma,0/2
same,No. of positive cases/total no. of cases studied,22 different tumor types; Pancreatic carcinoma,0/2
same,No. of positive cases/total no. of cases studied,22 different tumor types; Prostatic carcinoma,1/1
same,No. of positive cases/total no. of cases studied,22 different tumor types; Renal cell carcinoma,0/2
same,No. of positive cases/total no. of cases studied,22 different tumor types; Rhabdosarcoma,2/2
same,No. of positive cases/total no. of cases studied,22 different tumor types; Thyroid carcinoma,0/2
same,No. of positive cases/total no. of cases studied,22 different tumor types; Undifferentiated carcinoma,0/4
same,No. of positive cases/total no. of cases studied,[1]; Adipose,0/2
same,No. of positive cases/total no. of cases studied,[1]; Bladder,0/2
same,No. of positive cases/total no. of cases studied,[1]; Brain,0/2
same,No. of positive cases/total no. of cases studied,[1]; Breast,0/2
same,No. of positive cases/total no. of cases studied,[1]; Cerebullum,0/2
same,No. of positive cases/total no. of cases studied,[1]; Cervix,0/2
same,No. of positive cases/total no. of cases studied,[1]; Colon,0/2
same,No. of positive cases/total no. of cases studied,[1]; Diaphragm,2/2
same,No. of positive cases/total no. of cases studied,[1]; Duodenum,0/2
same,No. of positive cases/total no. of cases studied,[1]; Esophagus,0/2
same,No. of positive cases/total no. of cases studied,[1]; Gallbladder,0/2
same,No. of positive cases/total no. of cases studied,[1]; Heart,0/2
same,No. of positive cases/total no. of cases studied,[1]; Ileum,2/2
same,No. of positive cases/total no. of cases studied,[1]; Jejenum,2/2
same,No. of positive cases/total no. of cases studied,[1]; Kidney,1/2
same,No. of positive cases/total no. of cases studied,[1]; Liver,0/2
same,No. of positive cases/total no. of cases studied,[1]; Lung,0/2
same,No. of positive cases/total no. of cases studied,[1]; Ovary,0/2
same,No. of positive cases/total no. of cases studied,[1]; Pancreas,0/2
same,No. of positive cases/total no. of cases studied,[1]; Placenta,1/4
same,No. of positive cases/total no. of cases studied,[1]; Rectum,0/2
same,No. of positive cases/total no. of cases studied,[1]; Skeletal muscle,2/2
same,No. of positive cases/total no. of cases studied,[1]; Skin,0/2
same,No. of positive cases/total no. of cases studied,[1]; Spleen,0/2
same,No. of positive cases/total no. of cases studied,[1]; Stomach,0/2
same,No. of positive cases/total no. of cases studied,[1]; Testis,0/2
same,No. of positive cases/total no. of cases studied,[1]; Thymus,0/2
same,No. of positive cases/total no. of cases studied,[1]; Thyroid,0/2
same,No. of positive cases/total no. of cases studied,[1]; Tonsil,0/2
same,No. of positive cases/total no. of cases studied,[1]; Uterus,0/2
"PSf42.3: anti-PSMA monoclonal antibody; light chain variable SEQ ID NO:49, heavy chain variable SEQ ID NO:50 (antibody, V domains shown) VH: EVQLQQSGAELAKPGASVKLSCTGSGFNIKDTYMHWVKQRPEQGLEWIGGIDPETGNTKFDPRFQDKATITSDTSSNTVLLQLSSLTSEDTAVYYCANLGRPFAHWGQGTTVTVS VL: HSADPVSISCKSSQSLLHRDGKTYLNWVFQRPGQSPQRLIYLVSLVDSGVPDRFTGSGSGTDFTLKINRVEAEDLGVYYCWQGTHFPRTFGGGTKLEIKRA",No. of positive cases/total no. of cases studied,22 different tumor types; Astrocytoma,0/2
same,No. of positive cases/total no. of cases studied,22 different tumor types; Breast carcinoma,0/2
same,No. of positive cases/total no. of cases studied,22 different tumor types; Carcinoid,0/3
same,No. of positive cases/total no. of cases studied,22 different tumor types; Colonic adenocarcinoma,0/2
same,No. of positive cases/total no. of cases studied,22 different tumor types; Epithelioid sarcoma,0/1
same,No. of positive cases/total no. of cases studied,22 different tumor types; Ewing's sarcoma,0/1
same,No. of positive cases/total no. of cases studied,22 different tumor types; Gastric carcinoma,0/2
same,No. of positive cases/total no. of cases studied,22 different tumor types; Hepatocellular carcinoma,0/2
same,No. of positive cases/total no. of cases studied,22 different tumor types; Hodgkin's lymphoma,2/13
same,No. of positive cases/total no. of cases studied,22 different tumor types; Leiomyoma,0/2
same,No. of positive cases/total no. of cases studied,22 different tumor types; Lung adeno carcinoma,0/2
same,No. of positive cases/total no. of cases studied,22 different tumor types; Lymphoma,0/3
same,No. of positive cases/total no. of cases studied,22 different tumor types; Malignant fibrous histiocytoma,0/1
same,No. of positive cases/total no. of cases studied,22 different tumor types; Melanoma,2/4
same,No. of positive cases/total no. of cases studied,22 different tumor types; Mesothelioma,0/2
same,No. of positive cases/total no. of cases studied,22 different tumor types; Ovarian carcinoma,0/2
same,No. of positive cases/total no. of cases studied,22 different tumor types; Pancreatic carcinoma,0/2
same,No. of positive cases/total no. of cases studied,22 different tumor types; Prostatic carcinoma,1/1
same,No. of positive cases/total no. of cases studied,22 different tumor types; Renal cell carcinoma,0/2
same,No. of positive cases/total no. of cases studied,22 different tumor types; Rhabdosarcoma,2/2
same,No. of positive cases/total no. of cases studied,22 different tumor types; Thyroid carcinoma,0/2
same,No. of positive cases/total no. of cases studied,22 different tumor types; Undifferentiated carcinoma,0/4
same,No. of positive cases/total no. of cases studied,[1]; Adipose,0/2
same,No. of positive cases/total no. of cases studied,[1]; Bladder,0/2
same,No. of positive cases/total no. of cases studied,[1]; Brain,0/2
same,No. of positive cases/total no. of cases studied,[1]; Breast,0/2
same,No. of positive cases/total no. of cases studied,[1]; Cerebullum,0/2
same,No. of positive cases/total no. of cases studied,[1]; Cervix,0/2
same,No. of positive cases/total no. of cases studied,[1]; Colon,0/2
same,No. of positive cases/total no. of cases studied,[1]; Diaphragm,2/2
same,No. of positive cases/total no. of cases studied,[1]; Duodenum,2/2
same,No. of positive cases/total no. of cases studied,[1]; Esophagus,2/2
same,No. of positive cases/total no. of cases studied,[1]; Gallbladder,0/2
same,No. of positive cases/total no. of cases studied,[1]; Heart,0/2
same,No. of positive cases/total no. of cases studied,[1]; Ileum,2/2
same,No. of positive cases/total no. of cases studied,[1]; Jejenum,2/2
same,No. of positive cases/total no. of cases studied,[1]; Kidney,2/2
same,No. of positive cases/total no. of cases studied,[1]; Liver,0/2
same,No. of positive cases/total no. of cases studied,[1]; Lung,0/2
same,No. of positive cases/total no. of cases studied,[1]; Ovary,0/2
same,No. of positive cases/total no. of cases studied,[1]; Pancreas,0/2
same,No. of positive cases/total no. of cases studied,[1]; Placenta,1/4
same,No. of positive cases/total no. of cases studied,[1]; Rectum,0/2
same,No. of positive cases/total no. of cases studied,[1]; Skeletal muscle,2/2
same,No. of positive cases/total no. of cases studied,[1]; Skin,0/2
same,No. of positive cases/total no. of cases studied,[1]; Spleen,0/2
same,No. of positive cases/total no. of cases studied,[1]; Stomach,0/2
same,No. of positive cases/total no. of cases studied,[1]; Testis,0/2
same,No. of positive cases/total no. of cases studied,[1]; Thymus,0/2
same,No. of positive cases/total no. of cases studied,[1]; Thyroid,0/2
same,No. of positive cases/total no. of cases studied,[1]; Tonsil,0/2
same,No. of positive cases/total no. of cases studied,[1]; Uterus,0/2

# From patent publication US20110189093A1, “PROSTATE SPECIFIC MEMBRANE ANTIGEN ANTIBODIES AND ANTIGEN BINDING FRAGMENTS” (PROSCAN RX PHARMA, priority 2008, published 2011)
